Reference: the DeepSol protein solubility set

Assay: soluble on expression in E. coli; label from the status in PepcDB or PDB records

| Sequence | soluble on expression in E. coli |
| --- | --- |
| MGSDKIHHHHHHMEQHQVWAYQTKTHSVTLNSVDIPALAADDILVQNQAIGINPVDWKFIKANPINWSNGHVPGVDGAGVIVKVGAKVDSKMLGRRVAYHTSLKRHGSFAEFTVLNTDRVMTLPDNLSFERAAALPCPLLTAWQAFEKIPLTKQREVLIVGFGAVNNLLTQMLNNAGYVVDLVSASLSQALAAKRGVRHLYREPSQVTQKYFAIFDAVNSQNAAALVPSLKANGHIICIQDRIPAPIDPAFTRTISYHEIALGALHDFGDRQDWQILMQQGEALLTLIAQGKMEIAAPDIFRFEQMIEALDHSEQTKLKTVLTLNE | not soluble |
| MGSDKIHHHHHHMLLMPTKDWRWEFNEEYGQLALSLDTQMSFLTAYKTKMLIPDALKGMKFSVEHAKFYIRMLERLPQLLTLSDAMIVQTALNATAAHFLLKPQMPKSWFFDVSDECVYFDLGKVFQLKNNQQSMLVLVVEVGLQSVLVMNLSAACQLSDNKSLGQFDTIKVMHDRLHPLSRAKQIVAA | not soluble |
| MGSDKIHHHHHHAEISDKVIRIGVLNDQSGVYADIAGTGSVEAARMAAEEFGGEIDGAKIEFVSADHQNKADIAANVANQWIDTGGVDAIVDIPNSSAMLAVQEIGRTKKRIVIASGGGSTDFTGPKCSPYGFHWTYDTYSLAKGTAESLVKDGGTTWYNIVVDYAFGHSLDTDTSRFITQAGGQVVGRVLHPLGTSDFSSYLLQAQGSGAKVIGVLSAGADTVNAIKQAAEFGITQGGQILAGLLIFDQTVHSLGLETAQGLRLTTGFYWDRTDATRAWSAEFLKRSTKNIPSMAHAGVYSGVRHYLAAIKAAGTDNADAVAAKMRETPVNDMFAENGTVRADGRMVHDMYLMEVKKPADSTSEWDLMRLVHVIPGEEAYRPLAEGGCPLVQ | not soluble |
| MGSDKIHHHHHHMKIFITGATGLIGSNLIPLLLEKEYQITALVRDMEKARHQLPNQVQLVKALSHYENFNDFDGVINLAGAPIFAQYWTAGYKTELINSRLNLTENLTALINNSNKPPHCFISASATGYYGDQGNNLITEKSLSGNQFTAQLCQQWENIALQANSRVCLLRTGMVFSEKGGALTKILPIYRYGVGGKLGTGKQFWAWISLQDMLQAILFLLENAQCEGAFNLVAPKPIQNKDFNCQLGAWLKRPYLATVPKFLLNLLLGERATLLLDSQNVIPQKLLEAGFHFSTPTFSDFLHSIKK | not soluble |
| MKTLLYQKVYDQLKLSIQEGKIPVGSKMPTENELMAQFDVSSITLKKALELLKKDGYISRRPRVGTFVINDSPNSEQIETRKFDKPLFGCIMTNFDDTFGTILLSGMLEHSDSKAHIIVKKSLGDTEREEEILQEFIEMNVAGILILPASSKFVSPTLLELASQKFPLVVIDRTLEGLPISSISSDNTEAGRIITEKLFELGHKHIGMITSTSPVSTLDSRVNGFIRGHASFHTAFHSDYVFREIESVMPNSTVSIQTDIDKIARFLETHPEITALVATEYNIALLIKQACNKLGKSIPTNLSVVCFDHPDNFFDTSAFQFTHIKQAQYEIGVKAVDMLLNQVLKPDTINKETLPPLLVEGDSVEPLKSTSK | not soluble |
| MNFQKLLKEAQKAQKKAAEVQERLERMTVVGSAQGLVEVEANGHGKILALRLKPEALKAFQDDPEGLEDLLLVAIQDAQTKAHELSEKEMAKELGGVGQMLGKLF | soluble |
| MKDIIIASFYKFIPLNDFESLREPILTKMHEIGIKGTIILAHEGVNGGFAGNREQMNVFYDYLRSDSRFADLHFKETYDNKNPFDKAKVKLRKEIVTMGVQKVDPSYNAGTYLSPEEWHQFIQDPNVILLDTRNDYEYELGTFKNAINPDIENFREFPDYVQRNLIDKKDKKIAMFCTGGIRCEKTTAYMKELGFEHVYQLHDGILNYLESIPESESLWEGKCFVFDDRVAVDQKLDRVYPQLPQDYKYEREQK | not soluble |
| MGSDKIHHHHHHMFRTFTEKRSEWKEQISEEIIPLIHRGMVNRKQWLLVNLKGRLWSGSLRDQFMFENIEWLRNYYKGEKLIVWAHNYHIRKNRSLLLELLRIKTVDHLLAKKYADRVFSVGFYAGSGTCLTPYKDLHEITMINQYHLELLLKELNGHTFFLPTNIGAKRNAWNKQAWWLLETRLLGMAPLVLKPIKAYDAIFFIKCVKPPQELGG | not soluble |
| MGSDKIHHHHHHMARVPRFALVERDSSNHCTWRAHDLEFVFEEPGARDKFLELVGRYKDRYGVEIRSYCLMGTHPHVTCTCRQEQVQFSRFWQVVNGQFARWYNKVRNRRGQVVMERMRTPRIQEGGAHQLTVMRYGDLNPVRAGLVKSPKDWKWSSYRHYAFGEPNPLITDAPEYLALGKTAQERRKAYQALFALPLSESLRTRRVELVSFPFVGDATWVMRRLEAAGLSPPD | not soluble |
| MMVTFGEPGVYSSYSNPLPSTDTWEDCLEYCLGLSTCVAVYNNNCQMFEIGQISTATSTSETKIAFKFLADNATCPIQEPTSLQGHYFTNTTYQPYTVSYSAPTWTFANSTQLECPTNYALFVRDLGPWCMKVIQHYACCNKTIAATMCNSYGAQLSGLDSTAEYDFMLAGSWPIFKNVTTNKIGSTQYYATGVWVDGARTLACMGNTTYPCNTTQAFSFTDPTLSSPPGGYLWLPGRPDGGDAPADGIVLNLYTTELYGMEDTPSSEPVSGVYCWMGYLCGAVPT | not soluble |
| MLSNDILRSVRYILKANNTDLARILALGNVDATPEQIAIWLRKEEEEGFQRCPDIVLSSFLNGLIYEKRGKDEAAPALTAERRINNNIVLKKLRIAFSLKTDDILAILTGQLFRVSMPEITAMMRAPDHKNFRECGDQFMRYFLRGLAAREHAAK | not soluble |
| TVVVSEAGASVYSASEFAANEFPNLDVSLRGAVSIARRLQDPLAELVKIEPKAIGVGQYQHDVNQTQLARKLDAVVEDCVNAVGVDLNTASAPLLARVAGMTKTLAQNIVEYRDENGRFESRSELKKVPRLGPKAFEQCAGFMRIANGKNPLDASGVHPEAYPVVEKILQATAQSIQDLMSNAGVVRQLDAKQFI | not soluble |
| GPGSMEAAPAAAAPRLPQAPKRPREESDAPLQESSNGSVPANFSNEASVTTPVAGTELVVDVDQPETNAQASAVDAPRSRSRGLAAVGPGSTSPVAASRSGTDGANNCQPAAAVTTLSSSSASADARRFKQPTLAAYGLVSDTMTLKKEISDRDSHIEELNREVEGLRAEAGRRNDQINFMDGQCRQYQRKLEHFQSVMRQEMLSAAQKDRSEARRVLYQKHFELGQTATWHSNGQTVWMEGDRVRTLFLKLADLTQKREEVEALKKAAQSNVKHLARQEREREDSGAGPDLQDALMAAQMEYQLRASEHAALTNTIADVKLKQTEIEHEKKAFVKEMRRVNDEDTSEFLAIPTIGEGDRYVLMHLLGKGGFSEVWKAFDLVEGRYVACKIHHIQREWPAQTRTHYLRHAQRELDIMRALDHPHLTHLYDVFPRGDNMFISVMEYSNGMDLDTYLKRYRIFKEADARLIFLQVVDVLRYLASLDSPIIHYDLKPANILLHRDDPTILDIKITDFGLSKIIGATREGPSDNPSIELTSQGTGTYWYLPPECFETSSTPRISNKVDIWSAGVIFYQMLFGKRPFAEGESQRRIWQEKLIIQSARTLHFPDTPKVSEEAKDIIRGCLAFNERERCDVFQLSQDPYLFRTSRRSAHKAKSAAPAGVGSSNSPLMPPVTDATPAS | soluble |
| MSLQKFSDEQRSQIETIIKEYLVSHPEVLEEASEELGKRQAAAQAEKHQQAIKDNADIIYNSPRGVTVGNKNGDVTMVEFFDYNCGYCKRAMTDMMELMKDDPNLKVVLKEFPVLGPPSVEAAQVAIAVRMQDPTGKKYLDFHQKLLGGRGQADKARALAAAKDAGLDPAKIEKDMNSPEVRATIEESFKLAESMGMNGTPSYVIGKQVVVGAVGLDTLRQKINTARCGKDKCEGHHHHHH | soluble |
| SASSIICQEHCQISGQAKIDILLVGDVTVGYLADTVQKLFANIAEVTITISDTKEAAALLDDCIFNMVLLKVPSSLSAEELEAIKLIRFGKKKNTHSLFVFIIPENFKGCISGHGMDIALTEPLTMEKMSNVVKYWTTCPSNTVKTENATGPEELGLPLQRSYSEHLGYFPTDLFACSESLRNGNGLELNASLSEFEKNKKISLLHSSKEKLRRLYRKHSSFCFW | soluble |
| MKTVMLMLTSLLMAGCSVLGKREAAEPPYELLKHDGAFEVRRYGPMVIAETILDEKSYSAASGKGFNRLAGYIFGKNRSKTSISMTAPVLQERSSEKISMTAPVLQQPQKGGWSMAFVLPEGFTLQSAPEPLDPEVKLRELPPSTIAVVTFSGLHSAANLEKYSRQLQAWLKKQGYRALSEPKLASYDPPWTIPFLRRNEVQIRIEPDHGESGKELEHHHHHH | soluble |
| MGHHHHHHSHMLWECKQLGAHSPSTLLTTLMFFNTKYFLLKTVDQHMKLAFSKVLRQTKKNPSNPKDKSTSIRYLKALGIHQTGQKVTDDMYAEQTENPENPLRCPIKLYDFYLFKCPQSVKGRNDTFYLTPEPVVAPNSPIWYSVQPISREQMGQMLTRILVIREIQEAIAVANASTMH | not soluble |
| MKKEKDLSVAVLIDGDNASSEKMEDVMRFVSRYGAAVVRRIYGDWTKKSLSGWKDAARDYSFRMVQASSFVPGKNTTDIALVMDAMDILHEGRVGCFCLVASDGDYTLLAQRIRESGLTVLGYGEGKTPAALVRSCTEFLLADRKEEKPFQENTPEFFIQRDMEYFDKAFEQAADGKAEVSLSLIGGVLKKLMPKFKVKRYGCRTLGKLYERLEKYELVKTGKGVAGLVRIKS | not soluble |
| MGHHHHHHHHHHSSGHIEGRHMAAVTLHLRAETKPLEARAALTPTTVKKLIAKGFKIYVEDSPQSTFNINEYRQAGAIIVPAGSWKTAPRDRIIIGLKEMPETDTFPLVHEHIQFAHCYKDQAGWQNVLMRFIKGHGTLYDLEFLENDQGRRVAAFGFYAGFAGAALGVRDWAFKQTHSDDEDLPAVSPYPNEKALVKDVTKDYKEALATGARKPTVLIIGALGRCGSGAIDLLHKVGIPDANILKWDIKETSRGGPFDEIPQADIFINCIYLSKPIAPFTNMEKLNNPNRRLRTVVDVSADTTNPHNPIPIYTVATVFNKPTVLVPTTAGPKLSVISIDHLPSLLPREASEFFSHDLLPSLELLPQRKTAPVWVRAKKLFDRHCARVKRSSRL | soluble |
| MATSNLLKNKGSLQFEDKWDFMHPIVLKLLRQESVTKQQWFDLFSDVHAVCLWDDKGSSKIHQALKEDILEFIKQAQARVLSHQDDTALLKAYIVEWRKFFTQCDILPKPFCQLEVTLLGKQSSNKKSNMEDSIVRKLMLDTWNESIFSNIKNRLQDSAMKLVHAERLGEAFDSQLVIGVRESYVNLCSNPEDKLQIYRDNFEKAYLDSTERFYRTQAPSYLQQNGVQNYMKYADAKLKEEEKRALRYLETRRECNSVEALMECCVNALVTSFKETILAECQGMIKRNETEKLHLMFSLMDKVPNGIEPMLKDLEEHIISAGLADMVAAAETITTDSEKYREQLDTLFNRFSKLVKEAFQDDPRFLTARDKAYKAVVNDATIFKAENLYFQ | soluble |
| MSLERPLCISYIRFSKATQAEGSSLERQLQLSRTYAEEHGLVLDDKHSYQDLGKSAFTSEHVKEGEFGVFLEFVKQGRVPKGSVLLVESLDRLSRESVLTAFKQFQEILDAGIKIVTLSDKMEYTKEGFEANIGNIFISLGIMARANEESLRKSERICAAWRLKRKNLHNIKLTANCPGWLELTPDKKDFILKEDRVEIVKQIFELSLSGLGVKAISTILNKQKIEPFRSKIGWYQTTVRKILSNSAVIGEFQPHVFGSKHSKPVPDGELIKDYFPPIIDTDTFYAVQAKLKNGAHRPGRTAKVENLFSGYTRCGYCGSRMDVVARHNVGGEVRYLVCDSARRGVKCSYISMKCNEIEKAFFEYCREIDIRYVLRAEQQADQNRLNELRKSLTARNGKLMKVQKQIDMLNVFLDDITERAELEHYHEQIKKKLEEKTNLSEEIEKLSKGICIAEYDNNNIDVRVQNLLTLDKAQNKSVKEDDKIMFRIRLRDELRQIISQILVYPRGSVFSDEQIEQKERDYEIKIKSASDSEKHILKHEKTIDLDGMRQSQQNTKDDRFFVVRFKNGNYRTIKYDKKQQAYRVTSELINDKLNWWMGNKEMAPIFREEEELHPFETEFELDSNEGHHHHHH | not soluble |
